{"source": "patent US20170211067", "about": "“ANTAGONISTIC CTLA-4 APTAMERS AND APPLICATIONS THEREOF IN ENHANCING IMMUNE ACTIVITY” (Academia Sinica, published 2017)", "binders": {"B1": {"name": "CA21 (ssDNA)", "DNA": "TCCCTACGGCGCTAACGATGGTGAAAATGGGCCTAGGGTGGACGGTGCCACCGTGCTACAAC"}, "B2": {"name": "CA82 (ssDNA)", "DNA": "TCCCTACGGCGCTAACCGATCGAAAATGTCCAGGGAGTTGTCTGTAGCCACCGTGCTACAAC"}, "B3": {"name": "CA32 (ssDNA)", "DNA": "TCCCTACGGCGCTAACGTCCACACTCAGAAAACAGAATAGGGGGTAGCCACCGTGCTACAAC"}}, "key": {"CTLA-4 [1]": {"target": "T1, CTLA-4 (UniProt P16410 P16410:36-161)", "T1 sequence (P16410 36-161, one chain of several)": "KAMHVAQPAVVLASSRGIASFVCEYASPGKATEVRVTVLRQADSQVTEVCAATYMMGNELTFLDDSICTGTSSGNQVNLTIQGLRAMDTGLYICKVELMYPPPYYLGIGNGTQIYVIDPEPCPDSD", "assay": "CTLA-4 stably expressing 293 cells, 2-fold dilutions from 250 nM; no binding to non-transfected 293T by flow at 10 nM", "settings": "tags: expressed on CTLA-4-transfected 293T / stably expressing 293 cells; label: AlexaFluor 647 (flow cytometry); possible G-quadruplex; Mfold secondary structure dG -10.6", "description": "(§1) Panels A and B are FACS analysis diagrams showing the binding activities of selected aptamers to CTLA-4 expressed on wild-type 293T cells. […] The cells of panel A and panel B were incubated with 10 nM of AlexaFluor 647 labeled CA7, CA21, CA32 and CA82 aptamer as indicated. After washing away the unbounded aptamer, the fluorescent signals were measured by flow cytometry and the results of wild-type 293T cells are shown in panel A. The results for CTLA-4 expressing wild-type 293T cells are shown in panel B. Panels C, D, E and F show the CTLA-4 binding affinity of the aptamers CA7, CA21, CA32 and CA82, respectively. The four aptamers were selected and characterized for their binding affinity against CTLA-4 expressing cells. These aptamers were first synthesized and followed by 2-fold serial dilution which started from 250 nM. Six dosage points were analyzed after incubation of the selected pool with CTLA-4 stably expressed 293 cells.\n(§2) Four aptamers (CA7, CA21, CA32 and CA82) isolated by the method described in Example 1 were selected by their higher structural stability. The binding specificity of these four aptamers were analyzed by flow cytometry. All four of these apatmers specifically recognized CTLA-4-expressing cells, except a relatively low non-specific binding signal in CA7 against wild type 293 cells (FIG. 2, panels A and B). […]"}, "CTLA-4 [2]": {"target": "CTLA-4 (Mus musculus, UniProt P09793 P09793:36-161)", "sequence (P09793 36-161, one chain of several)": "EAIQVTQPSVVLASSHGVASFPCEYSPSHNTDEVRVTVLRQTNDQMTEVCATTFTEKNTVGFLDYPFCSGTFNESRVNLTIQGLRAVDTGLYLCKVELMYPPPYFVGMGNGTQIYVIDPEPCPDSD", "assay": "CA21 stated to cross-react with mouse CTLA-4, assay not described", "settings": "label: AlexaFluor 647 (flow cytometry)"}, "CTLA-4 [3]": {"target": "T1, CTLA-4", "assay": "CTLA-4 stably expressing 293 cells; no binding to non-transfected 293T by flow at 10 nM", "settings": "tags: expressed on CTLA-4-transfected 293T / stably expressing 293 cells; label: AlexaFluor 647 (flow cytometry)", "description": "as §1, §2"}}}
{"binder": "B1", "values": [{"measurement": "Kd", "setting": "CTLA-4 [1]", "value": 11.8, "unit": "nM"}, {"measurement": "binding result", "setting": "CTLA-4 [2]", "value": "binds"}]}
{"binder": "B2", "values": [{"measurement": "Kd", "setting": "CTLA-4 [3]", "value": 36.5, "unit": "nM"}]}
{"binder": "B3", "values": [{"measurement": "Kd", "setting": "CTLA-4 [3]", "value": 61.8, "unit": "nM"}]}
